According to paper PMC6771166:

Assay: 5′-nucleotidase kit, transfected PLC/PRF/5 lysates
Details: glycan lost; control: wild type

B1: CD73 (ecto‐5′‐nucleotidase): N311Q (protein)
parent chain: MCPRAARAPATLLLALGAVLWPAAGAWELTILHTNDVHSRLEQTSEDSSKCVNASRCMGGVARLFTKVQQIRRAEPNVLLLDAGDQYQGTIWFTVYKGAEVAHFMNALRYDAMALGNHEFDNGVEGLIEPLLKEAKFPILSANIKAKGPLASQISGLYLPYKVLPVGDEVVGIVGYTSKETPFLSNPGTNLVFEDEITALQPEVDKLKTLNVNKIIALGHSGFEMDKLIAQKVRGVDVVVGGHSNTFLYTGNPPSKEVPAGKYPFIVTSDDGRKVPVVQAYAFGKYLGYLKIEFDERGNVISSHGNPILLNSSIPEDPSIKADINKWRIKLDNYSTQELGKTIVYLDGSSQSCRFRECNMGNLICDAMINNNLRHTDEMFWNHVSMCILNGGGIRSPIDERNNGTITWENLAAVLPFGGTFDLVQLKGSTLKKAFEHSVHRYGQSTGEFLQVGGIHVVYDLSRKPGDRVVKLDVLCTKCRVPSYDPLKMDEVYKVILPNFLANGGDGFQMIKDELLRHDSGDQDINVVSTYISKMKVIYPAVEGRIKFSTGSHCHGSFSLIFLSLWAVIFVLYQ
  enzymatic_activity, percent_of_wt: decreases

B2: CD73 (ecto‐5′‐nucleotidase): N333Q (protein)
parent chain: MCPRAARAPATLLLALGAVLWPAAGAWELTILHTNDVHSRLEQTSEDSSKCVNASRCMGGVARLFTKVQQIRRAEPNVLLLDAGDQYQGTIWFTVYKGAEVAHFMNALRYDAMALGNHEFDNGVEGLIEPLLKEAKFPILSANIKAKGPLASQISGLYLPYKVLPVGDEVVGIVGYTSKETPFLSNPGTNLVFEDEITALQPEVDKLKTLNVNKIIALGHSGFEMDKLIAQKVRGVDVVVGGHSNTFLYTGNPPSKEVPAGKYPFIVTSDDGRKVPVVQAYAFGKYLGYLKIEFDERGNVISSHGNPILLNSSIPEDPSIKADINKWRIKLDNYSTQELGKTIVYLDGSSQSCRFRECNMGNLICDAMINNNLRHTDEMFWNHVSMCILNGGGIRSPIDERNNGTITWENLAAVLPFGGTFDLVQLKGSTLKKAFEHSVHRYGQSTGEFLQVGGIHVVYDLSRKPGDRVVKLDVLCTKCRVPSYDPLKMDEVYKVILPNFLANGGDGFQMIKDELLRHDSGDQDINVVSTYISKMKVIYPAVEGRIKFSTGSHCHGSFSLIFLSLWAVIFVLYQ
  enzymatic_activity, percent_of_wt: decreases
